The labels stand for the following.
B1: FtsZ (natural protein, E. coli, UniProt P0A9A6 1-383, looked up)
chain: MFEPMELTNDAVIKVIGVGGGGGNAVEHMVRERIEGVEFFAVNTDAQALRKTAVGQTIQIGSGITKGLGAGANPEVGRNAADEDRDALRAALEGADMVFIAAGMGGGTGTGAAPVVAEVAKDLGILTVAVVTKPFNFEGKKRMAFAEQGITELSKHVDSLITIPNDKLLKVLGRGISLLDAFGAANDVLKGAVQGIAELITRPGLMNVDFADVRTVMSEMGYAMMGSGVASGEDRAEEAAEMAISSPLLEDIDLSGARGVLVNITAGFDLRLDEFETVGNTIRAFASDNATVVIGTSLDPDMNDELRVTVVATGIGMDKRPEITLVTNKQVQQPVMDRYQQHGMAPLTQEQKPVAKVVNDNAPQTAKEPDYLDIPAFLRKQAD
modifications: Alexa Fluor 488 or Alexa Fluor 647 on amino groups, only in the tracer fraction (below 1 mole of dye per mole of protein)
notes: Cell division GTPase FtsZ, E. coli; The methods name no species for the construct; Oligomers without GTP (GDP form), polymers with GTP; also called FtsZ-Alexa 647; source: purified as described in [6,22,25]

Data set [1] concerns the molecule itself. The experiment in a line: fluorescence polarisation; anisotropy with time after addition of GTP; 5 uM FtsZ with 50 nM FtsZ-Alexa 488 as tracer; solution buffer with 300 mM KCl; 27 C. (In general: Polarisation of emitted light reports the rotation of a fluorescent probe.)
Data set [2] deals with the molecule itself. The experiment in a line: fluorescence correlation spectroscopy; no GTP (FtsZ oligomers); solution buffer with 100 mM KCl; 10 nM ZapA-Alexa 488 or SBS-Alexa 488 as tracer; 5 uM ZapA, 5 uM SlmA, 1 uM SBS, 50 or 20 uM FtsZ.
Data set [3] deals with B1. The experiment in a line: fluorescence correlation spectroscopy; FtsZ polymers: 10 uM FtsZ, 2 mM GTP and enzymatic GTP regeneration system; 10 nM labelled tracer; solution buffer. The following applies: both partners purified.

From article PMC9974302, “Bacterial division ring stabilizing ZapA versus destabilizing SlmA modulate FtsZ switching between biomolecular condensates and polymers” (Open Biology, 2023) come the findings set out here.

The term stoichiometry N denotes the number of molecules, sites or subunits per partner or assembly.

Consider B1, for which the binding result in data set [1] is reported as “binds”.

B2: ZapA (natural protein, E. coli, UniProt P0ADS2 1-109, looked up)
chain: MSAQPVDIQIFGRSLRVNCPPDQRDALNQAADDLNQRLQDLKERTRVTNTEQLVFIAALNISYELAQEKAKTRDYAASMEQRIRMLQQTIEQALLEQGRITEKTNQNFE
modifications: Alexa Fluor 488 on amino groups, only in the tracer fraction (below 1 mole of dye per mole of protein)
notes: Cell division protein ZapA, E. coli; Dimer-tetramer equilibrium that depends on salt; source: BL21(DE3) strain carrying plasmid pEJR029b, purified
For B2, the “stoichiometry N” value in data set [2] stood at 4. Also, the binding result in data set [3] was “binds”.
